assay: yeast display, Sf9 membrane polyspecificity reagent, FACS + sequencing; frameworks hold sequencing errors
In short: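 Genes from sorted yeast were amplified by colony PCR, read by MiSeq 2 × 250 sequencing and filtered on CDR length. These cells carried a synthetic nanobody library in Saccharomyces cerevisiae BJ5465 and were sorted by FACS into low and high (top ~1%) gates on anti-HA and streptavidin fluorescence. Polyreactivity is labelled according to the gate of origin.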

Sequence | polyreactivity (PSR sort gate)
QVQLVESGGGLVQAGGSLRLSCAASGFNIYNNAMAWYRQAPGKERELVAAITSNGGRTYYADSVKGRFTISRDNAKNTFYLQMNSLKPEDTAVYYCAVDLYVWNVHYYYWGQGTQVTVSS | high polyreactivity
QVQLVESGGGLVQAGGSLRLSCAASGFNLRRNAMGWYRQAPGKERELVAAITSSGGRTTYADSVKGRFTISRDNAKNTVYLQMNSLKPEDTAVYYCAADFHVDYDYWGQGTQVTVSS | high polyreactivity
QVQLVESGGGLVQAGGSLRLSCAASGFSFLAYAMGWYRQAPGKERELVAAINSSDGTTHYADSVKGRFTISRDNAKNTVYLQMNSLKPEDTAVYYCAVSQVRTGEGYHYWGQGTQVTVSS | low polyreactivity
QVQLVESGGGLVQAGGSLRLSCAASGFSFWSNDMGWSRQAPGKEREFVAAITTSGGNTYYADSVKGRFTISRDNAKNTVYLQMQSLKPEDTAVYYCAAEEGSTDATGYDYWGEGTQVTVSS | low polyreactivity
QVQLVESGGGLVQAGGSLRLSCAASGFSVPLYTMGWYRQAPGKERELVAAISVTGGSTYYADSVKGRFTISRDNAQNTVYLPMNSLKPEDTAVYYCNAYLFFLNRVWSFDYWGQGTQVTVSS | low polyreactivity
QVQLVESGGGLVQAGGSLRLSCAASGFTCYIYAMGWYRQAPGKERELVAGITSGGTNYADSVKGRFTISRDNAKNTVYLQINSLKPEDTAVYYCATDYYDDVTIGYDYWGQGTQVTFSS | low polyreactivity
QVQLVESGGGLVQAGGSLRLSCAASGFTFAFYTMGWYRQAPGKERELVAGITRSGTNTYYADSVKGRFTISRDNAKNTVYLQMNSLKPEDTAVYYCAAAIRPGMDYWGQGTQVTVSS | high polyreactivity
QVQLVESGGGLVQAGGSLRLSCAASGFTFAKYAMGWYRQAPGKERELVAAISSNGGTTYYADSVKGRFTISRDNAKNTDYLQMNSLKPEDTALYYCAAYTYRRPSTFTKVAFDYWGQGSQVTVSS | high polyreactivity
QVQLVESGGGLVQAGGSLRLSCAASGFTFALYAMGWYRQAPGKERELVAAITKGGGSTYYADSVKGRFTISRDNAKITVYLQMNSLKPEDTAVYYCAARGRYSAPDYGYWGQGTQVTVSS | high polyreactivity
QVQLVESGGGLVQAGGSLRLSCAASGFTFARNAMGWYRQAPGKERELVAGITSRGSSTSYADSVKGRFTISRDNAKNTVYLQMNSLKPEDTAVYYCAAVPRYRDRGQYGYWGQGTQVTVSS | high polyreactivity
QVQLVESGGGLVQAGGSLRLSCAASGFTFARYAMGWYRQAPGKERELVAAITSGSSTYYADSVKGRFTISRDNAKNTVYLQMNSLKPEDTAVYYCAARSFLQSYYYWGQGTQVTVSS | high polyreactivity
QVQLVESGGGLVQAGGSLRLSCAASGFTFASNDMGWYIPAPGKERELVSAITKGGGRTYYADSVKGRFTISRDNAKNTVYLQMNSLKPEDTAVYYCAASHDKRRQYFVGQSAFDYWGQGTQVTVSS | low polyreactivity
QVQLVESGGGLVQAGGSLRLSCAASGFTFASYVMGWYRQAPGKERELVAAISYSGGYTYYADSVKGRFTISRDNAKNTVYLQMNSLKPEDTAVYYCNARYLQGYSGRYGYWGQGTQVTVSS | high polyreactivity
QVQLVESGGGLVQAGGSLRLSCAASGFTFAVYAMGWYRQAPGKERELVAAISDSGGSTYYADSVKGRFTISRDNAKNTVYLQMNSLKPEDTAVYYCNRDWIVSGYYAYYEFDYWGQGTQVTVSS | low polyreactivity
QVQLVESGGGLVQAGGSLRLSCAASGFTFAVYVMGWYRQAPGKERELVATISFSVGSTYYADSVKGRFTISRDNAKNTVYLQMNSLKPEDTAVYDCNADPPPEYYPDKDNYWGQGTQVTVSS | low polyreactivity
QVQLVESGGGLVQAGGSLRLSCAASGFTFAWYAMGWYRQAPGKERELVAAINWSGGRTYYADSVKGRFTISRDNAKNTVYLQMNSLKPEDTAVYYCAAPHLVKRSEFDYWGQGTQVTVSS | high polyreactivity
QVQLVESGGGLVQAGGSLRLSCAASGFTFAYYAMGWYRQAPGKERELVAAITGSGGRTYYADSVKGRFTISRDNAKNTVYLQMNSLKPEDTAVYYCAALTGPYKAQVHGGHTPLDYWGQGTQVTVSS | low polyreactivity
QVQLVESGGGLVQAGGSLRLSCAASGFTFCRNTMGWYRQAPGKEREFVAAIDWSGGSTTYADSVKGRFTISRDNAKNTVYLQMNSLKPEDTAVYYCAADERRRHYWWGQESDYWGQGTQVNVSS | low polyreactivity
QVQLVESGGGLVQAGGSLRLSCAASGFTFDAYTMGWYREAPGKERELVAAINWSGDTTYYADSVKGRFTISRDNAMNTVYLQMNSLKPEDTAVYYCAAVWLNYGVWFDYWGQGTQVTVSS | high polyreactivity
QVQLVESGGGLVQAGGSLRLSCAASGFTFDDYDMGWYRQAPGKERELVAAISWSGGSTYYADSVKGRFTFSRDNAKNTVYLQMNSLKPEDSAVYYCAAERSYGGFDYWGQGTQVTVSS | low polyreactivity
QVQLVESGGGLVQAGGSLRLSCAASGFTFDENAMGWYRQAPGINYSGASTYYADSVKGRFTISRDNAKNTVYFQMNSLKPEDTAVYYCAAEVVAQMNYWGQGTQVTVSS | low polyreactivity
QVQLVESGGGLVQAGGSLRLSCAASGFTFDFYAMGWYRQAPGKERELVAAINWSGSSTYYADSVKGRFTISRDNAKNTVYLQMNSLKPEDTAVYYCAAQVYYTLFPDVYTMYYWGQGTQVTVSS | high polyreactivity

Sequence | polyreactivity (PSR sort gate)
QVQLVESGGGLVQAGGSLRLSCAASGFTFDFYVMGWYRQAPGKERELVAAITSGGGTYYADSVKGRFTISRDNAKNTVYLQMNSLKPEDTAVYYCAVSVTTVSTYDYWGQGTQVTVSS | low polyreactivity
QVQLVESGGGLVQAGGSLRLSCAASGFTFDKNAMGWYRQAPGKERELVAAINIGSTYYADSVKGRFTISRDNAKNTVYLQMNSLKPEDSAVYYCAKEVPSGYWVNYYYWGQGTQVTVSS | low polyreactivity
QVQLVESGGGLVQAGGSLRLSCAASGFTFDSYAMGWYRQAPGKERELVAAITSDGSTYYADSVKGRFTISRDNAKNSVYLQMNSLKPEDTAVYYCAADGISLYATAYDFWGQGTQVTVSS | low polyreactivity
QVQLVESGGGLVQAGGSLRLSCAASGFTFDSYAMGWYRQAPGKERELVAAITSDGSTYYADSVKGRFTISRDNAKNTVYLQMNSLKPEDTAVYYCAADGRYFRAVFRLYDYWGQGTQVTVSS | low polyreactivity
QVQLVESGGGLVQAGGSLRLSCAASGFTFDSYAMGWYRQAPGTERELVASISSSGSTNYADSVKGRFTISRDNAKNTVYLQMNSLKPEDTAVYYCAAESRYPFIYEYWGQGTQVTVSS | low polyreactivity
QVQLVESGGGLVQAGGSLRLSCAASGFTFDYNAMGWYRQAPGKERELVASIDQSGGSTYYADSVKGRFTISRDNAKNTVYLQMNSLKPEDTAVYYCAAEGYYTSTYDLYDYYYWGQGTQVTVSS | low polyreactivity
QVQLVESGGGLVQAGGSLRLSCAASGFTFDYYDMGWYRQAPGKERELVAGITYSGGRTRYADSVKGRFTISRDNAKNTVYLQMNSLKPEDTAVYYCAARPGYPYRMNYWGQGTQVTVSS | low polyreactivity
QVQLVESGGGLVQAGGSLRLSCAASGFTFDYYTMGWYRQAPGKEREFVAAITWNGGSTYYADSVKGRFTISRYNAKNTVYLQMNSLKPEDSAVYYCAADTTYGINRREYWGQGTQVTVSS | low polyreactivity
QVQLVESGGGLVQAGGSLRLSCAASGFTFEFNVMGWYRQAPGKERELVASIRWGSTSYADSVKGRFTISRDNAKNTVYLQMNSLKPEDTAVYYCAADRSTGLGDDDYWGQGTQVTVSS | low polyreactivity
QVQLVESGGGLVQAGGSLRLSCAASGFTFEGYAMGWYRQAPGKERDLVAAISSNGGRTYYADSVKGRFTISRDNAKNPVYLQMNSLKPEDTAVYYCNADGYGDYSFLKYRFEYDYWGQGTQVTVSS | low polyreactivity
QVQLVESGGGLVQAGGSLRLSCAASGFTFEKYAMGWYRQAPGHERELVASISWSGGRTRYADSVKGRFTISRDNAKNTVYLQMNSLTPEDTAVDYCAASYRYFGRSTVRYDYWGQGTQVTVSS | high polyreactivity
QVQLVESGGGLVQAGGSLRLSCAASGFTFEKYAMGWYRQAPGKERELVAAITQSAGSTYADSVKGRFTISRDNAKNTVYLQMNSLKPVDTAVYYCAARYRYPYYARYGYWGQGTQVTVSS | high polyreactivity
QVQLVESGGGLVQAGGSLRLSCAASGFTFEKYVMGWYIQAPGKETEFVAAITRSGGRTYYADSVKGRFTISRDNAKNTVYLQMNSLKPEDTAVYSCNAVTSWAGSLDYWGQGTQVTVSS | high polyreactivity
QVQLVESGGGLVQAGGSLRLSCAASGFTFERNTMGWYRQAPGKERELVATITRRGTSTYYADSVKGRFTISRDNAKNTVYLQMNSLKPEDTAVYYCARGQYSHRSQAGMDYWGQGTQVTVSS | high polyreactivity
QVQLVESGGGLVQAGGSLRLSCAASGFTFERYAMGWYRQAPGKERELVAAIDWRGVNTYYADSVKGRFTISRDNAKNTVYLQMNSLKPEDTAVYYCNARAYGRYYWGQGTQVTVSS | high polyreactivity
QVQLVESGGGLVQAGGSLRLSCAASGFTFESNAIGWYRQAPGKERELVAAISSSGGSTYYADSVKGRFTISRDNAKNTVYLQMNSLKPEDTAVYYCNAYSLYYGGYDYWGQGTQVTVSS | high polyreactivity
QVQLVESGGGLVQAGGSLRLSCAASGFTFESYAMGWYRQAPGKERELVAAISWNGGSSYYADSVKGRFTISRDNAKNTVYLQMNSLKPEDTAVYYCAARGRAPRFRRIGYDYWGQGTQVSVSS | high polyreactivity
QVQLVESGGGLVQAGGSLRLSCAASGFTFESYAMGWYRQAPGKERELVAAISWNGGSTYYADSVKGRFTISRDNAKNTVYLQMNSLKPEDTAVYYCAARGRAPRFRRIGYDYWGQGTQVTVSS | high polyreactivity
QVQLVESGGGLVQAGGSLRLSCAASGFTFEYNAMGGYRQDPGKERELVAAITTTGSTYYADSVKGRFTISRDNAKNTVYLQMNSLKPEDTAVYYCAADPVWRGYSYQFDYWGQGTQVTVSS | low polyreactivity
QVQLVESGGGLVQAGGSLRLSCAASGFTFEYYAMGWYRQAPWKERELVATITWNGGSTYYADSVKGRFTISRDNAKNTVYFQMNSLKPEDTAVYYCAADEQAYYVRRFDYWGQGTQVTVSS | low polyreactivity
QVQLVESGGGLVQAGGSLRLSCAASGFTFFINGMGWYRQAPGKERELVAAIRSSGASTYDADSVKGRFTISRDNAKNTVYLQMNSLQPEDTAVYYCAVPLGAVGGPVDYWGQGTQVTVSS | low polyreactivity
